Source: US10508147B2, “Anti-nodal antibodies and methods of using same” (ANN AND ROBERT H. LURIE CHILDREN'S HOSPITAL OF CHICAGO, priority 2014, dated 2019)
“Also recorded” adds a separate entry of the source.

What was measured:
hNodal(44-67) peptide [1] = target: T1, hNodal(44-67) peptide (Homo sapiens, UniProt Q96S42); experiment: ELISA screening of hybridoma supernatants on coated hNodal(44-67) and hNodal(44-67)E49A-E50A; format: binding; settings: peptides coated at 330 nM; supernatants at 5.0 μg/mL (33 nM)
T1 construct: made in house; host or cells: chemical synthesis (Fmoc solid phase)
Procedure: (§1) Screening of hybridoma supernatants was carried out by ELISA coating the hNodal(44-67) BSA-conjugated peptide. Nine clones were positive. The pre-selected hybridoma supernatants were screened using in parallel hNodal(44-67) and its mutated variant hNodal(44-67)E49A-E50A. The assay was performed coating the unconjugated peptides at 330 nM and testing the hybridoma supernatants at a total protein concentration of 5.0 μg/mL (33 nM).
(§2) For hybridoma supernatants screening, hNodal(44-67) and hNodal(44-67)E49A-E50A were coated at 330 nM diluted in PBS on polystyrene conical flat bottom 96-well plates at 4° C. overnight (100 μL/well). After incubation, the coated wells were washed three times with PBS containing 0.005% Tween-20 (PBS-T) and non-specific binding sites were blocked by incubating with 1% BSA in PBS (300 μL/well) for 1 h at 37° C. After washing three times with PBS-T, supernatants of hybridomas diluted in PBS at 33 nM were incubated for 1 h at 37° C. (100 μL/well). […] After incubation and three washes with PBS-T, bound antibodies were detected by adding 100 μL/well of freshly prepared 0-phenylenediamine (0.4 mg/mL) containing H2O2 (0.4 mg/mL) in 0.1 M citrate buffer (pH 5.2) (SIGMAFAST™ OPD tablet Sigma-Aldrich). The peroxidase reaction was stopped after 5 min with 50 μL/well of 2.5 M H2SO4 and the optical density was measured at 490 nm, using a microplate reader. […]

hNodal(44-67) peptide [2] = experiment: as above; format: binding, human; settings: ELISA
Procedure: as §1, §2

C8161 cells = experiment: C8161 orthotopic (subcutaneous) xenograft in Nude mice, intratumoral treatment; format: in vivo
Procedure: Experiments were carried out to determine the in vivo effects of 3D1 mAb on primary melanoma. To this end, 500,000 C8161 cells were injected subcutaneously in Nude mice. Palpable tumors were then injected directly with either 700 μg of total 3D1 mAb or IgG control antibody (alternate day intratumoral injection of 100 μg over 14 days). Mice were then sacrificed and subcutaneous tumors harvested and processed as previously described. To evaluate the effect of 3D1 mAb in the presence of the BRAF(V600E) mutation, a third orthotopic xenograft model was established in Nude mice via subcutaneous injection of approximately 150,000 A375SM human metastatic melanoma cells. Mice were treated IP with 3D1 mAb or IgG control, as described above, or 3 mg/kg of dabrafenib.
Four micron thick, formalin fixed, paraffin embedded tissue sections were prepared and immunohistochemistry was carried out on a Dako Plus autostainer (DAKO, Inc, Carpenteria, Calif.). […] Similar to the lung tumor burden evaluation described above, mean percentage of positive staining±SEM was determined by 2 different observers, each calculating the ratio of positive cells/total number of cells×100 for 4 separate high power fields (63× objective) from at least 2 different mice per group.

C8161 melanoma cells = experiment: Western blot analysis of C8161 melanoma cells treated with anti-Nodal antibody; format: cell-based, human; settings: for phosphorylation of Smad2 and MAPK (ERK1/2): 1 hr to 72 hr
Procedure: Experiments were conducted in order to assess and characterize the ability of the 3D1 antibody to inhibit Nodal activity. 3D1 reduced Nodal expression, clonogenicity, and vasculogenic mimicry in metastatic melanoma cells (See FIG. 24). C8161 melanoma cells treated with an IgG-Control (negative control) or 4 μg/ml of either Santa Cruz (SC) (used as positive control) or 3D1 function blocking anti-Nodal antibodies for 72 hours.
Additional studies were performed in order to determine if 3D1 antibody could alter phosphorylation of Smad2 or MAPK. […] Western blot analysis of C8161 melanoma cells treated with 3D1 (4 μg/ml) vs. untreated control for 1 hr, 2 hr, 4 hr, 6 hr or 72 hr (See FIG. 25).
To determine the level of Nodal expression in brain, kidney, liver, pancreas, heart and skeletal muscle ready to use adult tissue extracts for Western blotting (WB) were purchased from Santa Cruz Biotechnology. For WB experiments of cell lines, whole cell lysates were prepared and quantified. SDS-PAGE gel electrophoresis and WB were performed using standard techniques. PVDF membranes were blocked in 5% non-fat milk or 5% BSA and antibodies diluted in either 5% non-fat milk or 5% bovine serum albumin overnight at 4° C., depending on the manufacturer's recommendations. Signal was detected using West Pico chemiluminescence reagent (Thermo Fisher) and exposure to x-ray film.

T1 sequence (Q96S42 281-304): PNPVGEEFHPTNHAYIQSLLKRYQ

recognition of the immobilized antigen hNodal(44-67) (hNodal(44-67) peptide [1]): recognized the immobilized antigen
B1: 3D1: mouse monoclonal anti-Nodal antibody raised against hNodal(44-67); light chain SEQ ID NO:1, heavy chains SEQ ID NO:2 and 3 (protein)
light: DIKMTQSPASLSASVGETVTITCRASGNIHNYLAWYQQKQGKSPQLLVYNAKTLADGVPSRFSGSGSGTQYSLKINSLQPEDFGSYYCQHFWSTPHVRCWDQAGTETEAW
heavy 1: VKLVESGGGLVKPGGSLKLSCAASGFTFSSYAMSWVRQTPEKRLEWVASISSGGCTYYPDSVKGRFTISRDNARNILYLQMSSLRSEDTAMYYCARGSMITADGNSLLLCYGLLGSRNLXHR
heavy 2: VKLVESGGGLVQPGGSMKLSCVASGFTFRNYWMSWVRQSPEKGLEWVAEIRLKSDNYAARYAESVKGKFTISRDDSKSRLYLQMNSLRAEDTGIYYCTGIRRFAYWGQGTL
modifications: not fully specified; (120)..(120) Xaa can be any naturally occurring amino acid
recognition of wild-type hNodal peptide versus E49A-E50A mutated variant (hNodal(44-67) peptide [2]): displayed selectivity for wild type Nodal peptide; also recorded: much better than the mutated variant; also recorded: recognizes less robustly the mutated peptide variant
mean percentage (±SEM) of cells with strong positive nuclear P-Smad2 staining (C8161 cells; IHC of tumor sections, N=4): 51.3%±3.3%
tumor volumes (C8161 cells; direct intratumoral injection, days 8 to 14, vs IgG control, listed as 3D1 mAb): significantly smaller; also recorded: Reduced tumor volumes
inhibition of Nodal protein expression (C8161 melanoma cells; 4 μg/ml, 72 hours, Western blot vs IgG control): 50%
phosphorylation of Smad2 and MAPK (ERK1/2) (C8161 melanoma cells; 4 μg/ml): reduced phosphorylation of Smad2 and MAPK
phosphorylation of Smad2 and MAPK (ERK1/2) (C8161 melanoma cells; 4 μg/ml, listed as 3D1 mAb): reduction in phosphorylation; also recorded: reduced
p27 level (C8161 melanoma cells; 72 hr): increases
phospho-Histone H3 (P-H3) level (C8161 melanoma cells; 72 hr): increases
Nodal expression (C8161 melanoma cells; 72 hr, 4 μg/ml, vs IgG control, listed as 3D1 mAb): reduction in Nodal expression
Cyclin B1 level (C8161 melanoma cells; 72 hr, listed as 3D1 mAb): reduced; also recorded: reduction
p27 level (C8161 melanoma cells; 72 hr, listed as 3D1 mAb): increase
phospho-Histone H3 (P-H3) level (C8161 melanoma cells; 72 hr, listed as 3D1 mAb): reduction
